Measured values: patent US7741541

Biological target: barnase (ribonuclease from Bacillus amyloliquefaciens) (Bacillus amyloliquefaciens) (UniProt P00648)
Experiment: cell-based or functional assay

Sequence of UniProt P00648 (P00648 48-157 limits assumed): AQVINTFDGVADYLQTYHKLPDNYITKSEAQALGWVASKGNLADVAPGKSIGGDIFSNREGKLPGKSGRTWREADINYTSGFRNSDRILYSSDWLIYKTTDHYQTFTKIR

barstar protein (product of the wild type and of the modified barstar gene of Bacillus amyloliquefaciens) (from UniProt P11540 2-90)
Percent of restored (male fertile) plants after transformation of barnase line bn 3.6 with construct A, A9-bs(fm)::TA29-bs(wt): 89.8% | Percent of restored (male fertile) plants after transformation of barnase line bn 3.6 with construct B, TA29-bs(wt): 65.6% | Percent of restored (male fertile) plants after transformation of barnase line bn 3.6 with construct C, A9-bs(wt): 12.7% | Percent of restored (male fertile) plants after transformation of barnase line bn 3.6 with construct D, A9-bs(fm): 10.8%
